Experimental data published in patent publication US20220281962A1.

Key:
[1] = target: recombinant human tetranectin (TN), residue 22-202 with a C-terminal histidine tag (human) (UniProt P05452); experiment: OpenSPR; TN chip, HMGB1 200 nM, without mAb8 pre-treatment
[2] = target: recombinant human tetranectin (TN), residue 22-202 with a C-terminal histidine tag (human) (UniProt P05452); experiment: OpenSPR; TN chip pre-treated with mAb8 (29.6 nM), HMGB1 at various concentrations
[3] = target: recombinant human tetranectin (TN), residue 22-202 with a C-terminal histidine tag (human) (UniProt P05452); experiment: OpenSPR; TN chip pre-treated with mAb8 (29.6 nM), HMGB1 200 nM
[4] = target: recombinant human tetranectin (TN), residue 22-202 with a C-terminal histidine tag (human) (UniProt P05452); experiment: OpenSPR; TN chip with against without mAb8 (29.6 nM) pre-treatment
[5] = target: recombinant human tetranectin (TN), residue 22-202 with a C-terminal histidine tag (human) (UniProt P05452); experiment: OpenSPR; TN immobilized on the chip, HMGB1 applied at 400, 200, 100 and 25 (no unit on the sheet) [A) lower panel]
[6] = target: recombinant human tetranectin (TN), residue 22-202 with a C-terminal histidine tag (human) (UniProt P05452); experiment: OpenSPR; TN on the chip, HMGB1 applied (FIG. 5A, Lower Panel, per paragraph 223)
[7] = target: recombinant CBP-HMGB1 (rat HMGB1 with a calmodulin-binding peptide tag) (rat) (UniProt P63159); experiment: OpenSPR; HMGB1 immobilized on the chip, TN applied at 280, 93, 31 and 10 (no unit on the sheet) [A) upper panel]
Sequence of recombinant CBP-HMGB1 (rat HMGB1 with a calmodulin-binding peptide tag) (rat) (P63159 whole entry, form in doubt): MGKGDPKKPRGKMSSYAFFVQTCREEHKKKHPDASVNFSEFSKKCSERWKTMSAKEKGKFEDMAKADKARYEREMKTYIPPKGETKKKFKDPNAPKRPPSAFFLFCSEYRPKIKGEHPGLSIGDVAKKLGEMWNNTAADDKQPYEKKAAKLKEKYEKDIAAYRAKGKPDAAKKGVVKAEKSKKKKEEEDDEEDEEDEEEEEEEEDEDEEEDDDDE

[8] = target: recombinant CBP-HMGB1 (rat HMGB1 with a calmodulin-binding peptide tag) (rat) (UniProt P63159); experiment: OpenSPR; TN or HMGB1 on the chip (His-tag or carboxyl groups); this end taken as HMGB1 on chip, TN applied (inferred, since 2.88 nM is tied to the TN chip at paragraph 223)

| SPR response signal [1] | Kd [2] | SPR response signal [3] | fold increase of KD [4] | Kd [5] | Kd [6] | Kd [7] | Kd [8] | Substance |
| --- | --- | --- | --- | --- | --- | --- | --- | --- |
| 150 AU | 18.5 nM | 35 AU | 6 fold | 2.88 nM | 1.21 to 2.88 nM |  |  | recombinant CBP-HMGB1 (rat HMGB1 with a calmodulin-binding peptide tag) (from UniProt P63159 1-215) |
|  |  |  |  |  |  | 1.21 nM | 1.21 to 2.88 nM | recombinant human tetranectin (TN), residue 22-202 with a C-terminal histidine tag (from UniProt P05452 22-202) |
